Assay results taken from paper PMC9482650, “Quantitative fragmentomics allow affinity mapping of interactomes” (Nature Communications, 2022).

Columns and labels:
Experiment in all cases: holdup assay
Design in all cases: key: below the threshold = too weak to quantify, mostly under pKd 3.1 to 4
[1] = target: T1, APBA1_1, Q02410
T1 sequence (Q02410 651-752, limits assumed, looked up): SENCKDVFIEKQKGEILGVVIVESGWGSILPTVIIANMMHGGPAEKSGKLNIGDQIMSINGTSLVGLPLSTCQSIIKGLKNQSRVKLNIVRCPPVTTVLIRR

[2] = target: DLG4_1, P78352
[3] = target: T2, HTRA4, P83105
T2 sequence (P83105 378-476, limits assumed, looked up): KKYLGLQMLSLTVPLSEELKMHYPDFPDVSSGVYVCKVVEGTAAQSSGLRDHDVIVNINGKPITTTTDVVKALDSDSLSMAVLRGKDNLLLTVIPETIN

[4] = target: MAST2, Q6P0Q8
[5] = target: SCRIB_3, Q14160
[6] = target: MAST1, Q9Y2H9
[7] = target: NHERF4_2, Q86UT5
[8] = target: Inadl_2, Q8NI35
[9] = target: T3, NHERF3_3, Q5T2W1
T3 sequence (Q5T2W1 238-333, limits assumed, looked up): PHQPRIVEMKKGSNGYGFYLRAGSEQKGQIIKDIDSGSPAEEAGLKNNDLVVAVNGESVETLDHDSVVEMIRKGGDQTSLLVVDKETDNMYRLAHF

[10] = target: T4, NHERF3_1, Q5T2W1
T4 sequence (Q5T2W1 4-100, limits assumed, looked up): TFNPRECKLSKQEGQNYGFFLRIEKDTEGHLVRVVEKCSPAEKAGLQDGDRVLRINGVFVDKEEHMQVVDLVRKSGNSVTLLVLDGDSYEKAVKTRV

[11] = target: ARHGEF12, Q9NZN5-2
[12] = target: T5, MPP7, Q5T2T1
T5 sequence (Q5T2T1 134-230, limits assumed, looked up): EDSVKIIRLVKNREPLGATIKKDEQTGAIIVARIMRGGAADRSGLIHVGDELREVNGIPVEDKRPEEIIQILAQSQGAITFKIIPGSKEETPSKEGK

[13] = target: LDB3, O75112
[14] = target: T6, TJP3_3, O95049
T6 sequence (O95049 375-456, limits assumed, looked up): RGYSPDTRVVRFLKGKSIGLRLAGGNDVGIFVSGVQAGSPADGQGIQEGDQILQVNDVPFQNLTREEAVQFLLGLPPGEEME

[15] = target: T7, MPP2, Q14168
T7 sequence (Q14168 180-250, limits assumed, looked up): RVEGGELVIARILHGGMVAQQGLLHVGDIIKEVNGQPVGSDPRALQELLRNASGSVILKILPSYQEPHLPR

[16] = target: T8, DFNB31_1, Q9P202
T8 sequence (Q9P202 135-233, limits assumed, looked up): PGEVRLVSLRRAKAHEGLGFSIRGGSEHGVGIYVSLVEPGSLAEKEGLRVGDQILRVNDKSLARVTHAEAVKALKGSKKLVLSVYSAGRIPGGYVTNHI

[17] = target: T9, MPP6, Q9NZW5
T9 sequence (Q9NZW5 125-219, limits assumed, looked up): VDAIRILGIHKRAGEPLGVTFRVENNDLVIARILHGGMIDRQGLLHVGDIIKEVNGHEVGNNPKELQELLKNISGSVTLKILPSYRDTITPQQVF

[18] = target: T10, FRMPD1, Q5SYB0
T10 sequence (Q5SYB0 52-145, limits assumed, looked up): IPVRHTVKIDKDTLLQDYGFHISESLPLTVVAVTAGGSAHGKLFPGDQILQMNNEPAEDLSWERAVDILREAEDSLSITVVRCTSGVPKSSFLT

[19] = target: SCRIB_2, Q14160
[20] = target: LNX1_2, Q8TBB1
[21] = target: NHERF4_1, Q86UT5-2
[22] = target: Inadl_9, Q8NI35
[23] = target: AHNAK1, Q09666
[24] = target: T11, DVL3, Q92997
T11 sequence (Q92997 244-331, limits assumed, looked up): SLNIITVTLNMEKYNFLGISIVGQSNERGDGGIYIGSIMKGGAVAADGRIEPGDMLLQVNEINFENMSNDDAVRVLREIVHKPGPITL

[25] = target: PDLIM1, O00151
[26] = target: T12, PCLO, Q9Y6V0
T12 sequence (Q9Y6V0 4491-4600, limits assumed, looked up): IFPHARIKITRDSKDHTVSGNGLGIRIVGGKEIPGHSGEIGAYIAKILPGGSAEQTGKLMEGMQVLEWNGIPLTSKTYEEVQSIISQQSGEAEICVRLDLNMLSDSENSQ

[27] = plain residues with an end cap or a label only (N-terminal biotin on a linker: ttds)
[28] = plain residues with an end cap or a label only (N-terminal biotin on a linker: ahx)

Chain of PDLIM1, O00151 (O00151 1-87): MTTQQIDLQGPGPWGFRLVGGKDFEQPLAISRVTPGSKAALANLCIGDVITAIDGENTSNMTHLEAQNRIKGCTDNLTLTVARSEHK
Chain of MAST1, Q9Y2H9 (Q9Y2H9 962-1065): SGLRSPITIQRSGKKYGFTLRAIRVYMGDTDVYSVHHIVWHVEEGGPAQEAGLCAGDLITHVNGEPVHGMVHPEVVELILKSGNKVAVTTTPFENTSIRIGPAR
Chain of ARHGEF12, Q9NZN5-2 (Q9NZN5 other isoform, or with tags, fused parts or gaps): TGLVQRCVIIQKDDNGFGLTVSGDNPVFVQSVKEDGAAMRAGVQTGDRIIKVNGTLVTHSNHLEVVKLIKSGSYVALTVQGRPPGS
Chain of NHERF4_1, Q86UT5-2 (Q86UT5 other isoform, or with tags, fused parts or gaps): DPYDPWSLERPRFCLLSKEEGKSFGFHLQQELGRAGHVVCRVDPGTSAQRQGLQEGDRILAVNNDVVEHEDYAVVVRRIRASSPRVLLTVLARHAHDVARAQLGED
Chain of LDB3, O75112 (O75112 1-94): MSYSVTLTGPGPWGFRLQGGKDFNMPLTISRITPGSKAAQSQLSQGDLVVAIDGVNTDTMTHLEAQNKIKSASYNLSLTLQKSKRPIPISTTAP
Chain of AHNAK1, Q09666 (Q09666 4-100): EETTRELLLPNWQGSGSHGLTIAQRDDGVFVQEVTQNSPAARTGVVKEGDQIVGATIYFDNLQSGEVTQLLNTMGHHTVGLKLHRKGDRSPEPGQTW
Chain of SCRIB_3, Q14160 (Q14160 999-1103): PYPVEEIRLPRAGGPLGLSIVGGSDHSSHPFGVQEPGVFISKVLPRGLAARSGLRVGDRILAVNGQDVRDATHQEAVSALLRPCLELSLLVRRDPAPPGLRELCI
Chain of Inadl_9, Q8NI35 (Q8NI35 1530-1615): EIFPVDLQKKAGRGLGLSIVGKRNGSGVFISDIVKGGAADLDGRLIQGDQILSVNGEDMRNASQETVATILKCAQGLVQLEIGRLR
Chain of DLG4_1, P78352 (P78352 62-152): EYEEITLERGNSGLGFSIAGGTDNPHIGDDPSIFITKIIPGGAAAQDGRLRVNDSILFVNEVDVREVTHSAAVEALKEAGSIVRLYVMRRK
Chain of NHERF4_2, Q86UT5 (Q86UT5 220-308): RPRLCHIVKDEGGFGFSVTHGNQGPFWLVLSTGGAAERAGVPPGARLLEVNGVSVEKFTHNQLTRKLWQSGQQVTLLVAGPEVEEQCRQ
Chain of LNX1_2, Q8TBB1 (Q8TBB1 371-470): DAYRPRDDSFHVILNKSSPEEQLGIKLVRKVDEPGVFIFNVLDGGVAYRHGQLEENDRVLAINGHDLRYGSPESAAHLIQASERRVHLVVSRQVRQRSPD
Chain of Inadl_2, Q8NI35 (Q8NI35 238-335): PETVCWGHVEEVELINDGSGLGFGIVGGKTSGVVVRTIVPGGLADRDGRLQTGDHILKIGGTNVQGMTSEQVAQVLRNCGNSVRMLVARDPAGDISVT
Chain of SCRIB_2, Q14160 (Q14160 857-960): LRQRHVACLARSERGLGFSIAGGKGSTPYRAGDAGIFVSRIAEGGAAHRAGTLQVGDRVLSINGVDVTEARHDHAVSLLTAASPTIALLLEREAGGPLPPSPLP
Chain of MAST2, Q6P0Q8 (Q6P0Q8 1099-1202): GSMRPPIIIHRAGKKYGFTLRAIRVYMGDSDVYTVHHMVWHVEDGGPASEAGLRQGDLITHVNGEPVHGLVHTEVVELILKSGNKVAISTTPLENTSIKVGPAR

ERKLSSESQV [LRP4, O75096] was tested, and the pKd [1, 27] was “below the threshold”, the pKd [2, 27] was 4.17 and the pKd [3, 27] was “below the threshold”. The pKd [4, 27] was 4.34, the pKd [5, 27] was 3.93 and the pKd [6, 27] was “below the threshold”. The pKd [7, 27] was “below the threshold”, the pKd [8, 27] was “below the threshold” and the pKd [9, 27] was “below the threshold”. For the same binder, the pKd [10, 27] was “below the threshold”, the pKd [11, 27] was 3.7 and the pKd [12, 27] was “below the threshold”. For the same binder, the pKd [13, 27] was “below the threshold”, the pKd [14, 27] was “below the threshold” and the pKd [15, 27] was “below the threshold”. For the same binder, the pKd [16, 27] was “below the threshold”, the pKd [17, 27] was “below the threshold” and the pKd [18, 27] was “below the threshold”. The pKd [19, 27] was 3.66, the pKd [20, 27] was “below the threshold” and the pKd [21, 27] was “below the threshold”. For the same binder, the pKd [22, 27] was “below the threshold”, the pKd [23, 27] was “below the threshold” and the pKd [24, 27] was “below the threshold”. The pKd [25, 27] was “below the threshold” and the pKd [26, 27] was “below the threshold”.

With HTHSYIETHV [CNKSR2, Q8WXI2] the pKd [1, 28] was “below the threshold”, the pKd [2, 28] was 4.4 and the pKd [3, 28] was 3.9. It also gave a pKd [4, 28] of 5.29, a pKd [5, 28] of 5.11 and a pKd [6, 28] of 4.57. The pKd [7, 28] was “below the threshold”, the pKd [8, 28] was “below the threshold” and the pKd [9, 28] was “below the threshold”. For the same binder, the pKd [10, 28] was 5.14, the pKd [11, 28] was 3.88 and the pKd [12, 28] was “below the threshold”. The pKd [13, 28] was “below the threshold”, the pKd [14, 28] was “below the threshold” and the pKd [15, 28] was “below the threshold”. For the same binder, the pKd [16, 28] was 4.23, the pKd [17, 28] was “below the threshold” and the pKd [18, 28] was “below the threshold”. The pKd [19, 28] was 5.31, the pKd [20, 28] was “below the threshold” and the pKd [21, 28] was “below the threshold”. The pKd [22, 28] was 3.64, the pKd [23, 28] was “below the threshold” and the pKd [24, 28] was “below the threshold”. For the same binder, the pKd [25, 28] was “below the threshold” and the pKd [26, 28] was “below the threshold”.
